Here are results for five molecules from patent publication US20240269235A1 (Gilead, published 2024).

Experiment [1] has as its target T1, trimeric murine IL-2 receptor (IL-2Rα, IL-2Rβ, and IL-2Rγ) on CTLL-2 cells (murine, UniProt P01590 22-268; P16297 27-539; P34902 23-369).
T1 sequence (looked up) 1: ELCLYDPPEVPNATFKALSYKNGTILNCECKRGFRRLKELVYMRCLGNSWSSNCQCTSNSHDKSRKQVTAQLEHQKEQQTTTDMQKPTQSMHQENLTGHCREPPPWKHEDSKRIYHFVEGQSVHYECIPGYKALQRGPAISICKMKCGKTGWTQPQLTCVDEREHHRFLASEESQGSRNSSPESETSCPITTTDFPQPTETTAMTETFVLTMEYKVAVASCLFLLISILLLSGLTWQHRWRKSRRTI
T1 sequence (looked up) 2: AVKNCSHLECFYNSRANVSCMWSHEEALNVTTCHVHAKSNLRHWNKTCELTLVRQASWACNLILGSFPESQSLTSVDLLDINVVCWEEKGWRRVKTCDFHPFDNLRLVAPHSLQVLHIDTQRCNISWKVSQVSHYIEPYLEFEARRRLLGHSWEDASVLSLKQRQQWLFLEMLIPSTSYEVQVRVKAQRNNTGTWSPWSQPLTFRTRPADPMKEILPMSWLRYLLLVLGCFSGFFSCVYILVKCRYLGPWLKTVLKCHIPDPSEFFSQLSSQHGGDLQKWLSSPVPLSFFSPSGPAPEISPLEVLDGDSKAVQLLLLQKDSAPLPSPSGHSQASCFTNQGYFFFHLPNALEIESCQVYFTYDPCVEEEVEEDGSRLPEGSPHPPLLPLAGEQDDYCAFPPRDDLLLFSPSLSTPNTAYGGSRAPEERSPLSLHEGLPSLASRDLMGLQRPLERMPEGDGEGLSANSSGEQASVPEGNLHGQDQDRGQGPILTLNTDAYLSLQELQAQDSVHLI
T1 sequence (looked up) 3: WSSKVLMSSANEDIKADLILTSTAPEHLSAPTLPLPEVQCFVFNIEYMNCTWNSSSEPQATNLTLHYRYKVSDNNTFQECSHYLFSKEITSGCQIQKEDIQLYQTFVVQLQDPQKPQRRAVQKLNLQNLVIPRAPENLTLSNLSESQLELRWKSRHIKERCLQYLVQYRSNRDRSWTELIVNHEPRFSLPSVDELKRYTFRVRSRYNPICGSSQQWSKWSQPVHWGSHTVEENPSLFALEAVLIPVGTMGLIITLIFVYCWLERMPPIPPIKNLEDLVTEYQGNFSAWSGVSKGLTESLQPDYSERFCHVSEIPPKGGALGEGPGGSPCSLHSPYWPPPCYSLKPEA
Kind of experiment: cell-based or functional assay.

Experiment [2] concerns the target T2, IL-2Rβγ heterodimer, custom biotinylated Fc fusion protein (human IL-2Rβ 27-240-Fc-FLAG / human IL-2Rγ … (human, site-specific biotinylation at the AviTag)).
T2 construct: Extracellular regions fused to IgG1 knob-in-hole Fc subunits with tags; also called IL-2 receptor βγ heterodimer; Fc-IL-2Rβγ
Put plainly: SPR (Biacore), CM4 chip, biotinylated receptor on neutravidin. How it is done:
(§1) Fc-IL-2 variant binding data was collected on a Biacore platform using a CM4 chip. Neutravidin was immobilized using standard amine coupling methods and used to capture biotinylated receptors. The source, preparation and immobilization of biotinylated IL-2Rα and IL-2Rβγ heterodimer was as described in Example 4. Proleukin was used as a comparator. Fc-IL-2 variants and Proleukin were injected at various concentrations over these surfaces. Kinetic data obtained from these injections was used to extract kₒₙ and koff to calculate KD (KD=Koff/kₒₙ).
On the technique in general: SPR reads the build-up and loss of mass on a sensor chip optically.

Experiment [3] concerns the target T3, IL-2Rα (recombinant IL-2 receptor α, R&D Systems Cat #: 223-2A/CF), biotinylated (human, UniProt P01589 22-213, limits assumed, biotinylated using sulfo-NHS-LC-LC-Biotin).
T3 construct: Bought reagent; also used here as the IL-2Rα partner of the in-silico analysis of PDB 2B5I (another construct); also called IL-2RA; CD25
T3 sequence (looked up): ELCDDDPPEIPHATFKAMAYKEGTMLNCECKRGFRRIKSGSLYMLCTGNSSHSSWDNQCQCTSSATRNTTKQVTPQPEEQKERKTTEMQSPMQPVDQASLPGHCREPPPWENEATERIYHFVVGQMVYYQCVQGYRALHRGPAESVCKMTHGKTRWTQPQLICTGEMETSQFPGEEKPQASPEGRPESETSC
The description is as above. How it is done: as §1

The target in experiment [4] is T1, trimeric murine IL-2 receptor (IL-2Rα, …). Kind of experiment: cell-based or functional assay. The source holds these as a separate data set.

B1: Fc-IL-2v heterodimer 96.46 (hIL-2v_Δ1-5_Y45G_E61A_C125S) (Fc fusion)
chain 1: ESKYGPPCPPCPAPEAAGGPSVFLFPPKPKDTLMISRTPEVTCVVVDVSQEDPEVQFNWYVDGVEVHNAKTKPREEQFNSTYRVVSVLTVLHQDWLNGKEYKCKVSNKGLPSSIEKTISKAKGQPREPQVYTLPPSQEEMTKNQVSLWCLVKGFYPSDIAVEWESNGQPENNYKTTPPVLDSDGSFFLYSRLTVDKSRWQEGNVFSCSVMHEALHNHYTQKSLSLSLGGGGGSGGGGSGGGGSGGGGSSTKKTQLQLEHLLLDLQMILNGINNYKNPKLTRMLTFKFGMPKKATELKHLQCLEAELKPLEEVLNLAQSKNFHLRPRDLISNINVIVLELKGSETTFMCEYADETATIVEFLNRWITFSQSIISTLT
chain 2: ESKYGPPCPPCPAPEAAGGPSVFLFPPKPKDTLMISRTPEVTCVVVDVSQEDPEVQFNWYVDGVEVHNAKTKPREEQFNSTYRVVSVLTVLHQDWLNGKEYKCKVSNKGLPSSIEKTISKAKGQPREPQVYTLPPSQEEMTKNQVSLSCAVKGFYPSDIAVEWESNGQPENNYKTTPPVLDSDGSFFLVSRLTVDKSRWQEGNVFSCSVMHEALHNRFTQKSLSLSLGK
notes: hIgG4 knob-in-hole Fc heterodimer, one IL-2v on the knob chain
A word on the Kd: it is the free concentration of one partner at which half of the binding sites on the other are occupied at equilibrium, for simple one-to-one binding. Turning to B1, the “STAT5 activation of CTLL-2 cells, EC50” value in experiment [1] stood at 0.4 nM. The Kd came out at 0.064 nM in experiment [2] and 56000 nM in experiment [3].

B2: Fc-IL-2v heterodimer 98.46 (hIL-2v_Δ1-5_R38G_Y45G_C125S) (Fc fusion)
chain 1: ESKYGPPCPPCPAPEAAGGPSVFLFPPKPKDTLMISRTPEVTCVVVDVSQEDPEVQFNWYVDGVEVHNAKTKPREEQFNSTYRVVSVLTVLHQDWLNGKEYKCKVSNKGLPSSIEKTISKAKGQPREPQVYTLPPSQEEMTKNQVSLWCLVKGFYPSDIAVEWESNGQPENNYKTTPPVLDSDGSFFLYSRLTVDKSRWQEGNVFSCSVMHEALHNHYTQKSLSLSLGGGGGSGGGGSGGGGSGGGGSSTKKTQLQLEHLLLDLQMILNGINNYKNPKLTGMLTFKFGMPKKATELKHLQCLEEELKPLEEVLNLAQSKNFHLRPRDLISNINVIVLELKGSETTFMCEYADETATIVEFLNRWITFSQSIISTLT
chain 2: ESKYGPPCPPCPAPEAAGGPSVFLFPPKPKDTLMISRTPEVTCVVVDVSQEDPEVQFNWYVDGVEVHNAKTKPREEQFNSTYRVVSVLTVLHQDWLNGKEYKCKVSNKGLPSSIEKTISKAKGQPREPQVYTLPPSQEEMTKNQVSLSCAVKGFYPSDIAVEWESNGQPENNYKTTPPVLDSDGSFFLVSRLTVDKSRWQEGNVFSCSVMHEALHNRFTQKSLSLSLGK
notes: as for B1
As to B2, the “STAT5 activation of CTLL-2 cells, EC50” value in experiment [1] is 0.2 nM. The Kd in experiment [2] is 0.056 nM; in experiment [3], 59000 nM.

B3: Fc-IL-2v heterodimer 105.46 (hIL-2v_Δ1-5_F42A_Y45A_L72G_C125S) (Fc fusion)
chain 1: ESKYGPPCPPCPAPEAAGGPSVFLFPPKPKDTLMISRTPEVTCVVVDVSQEDPEVQFNWYVDGVEVHNAKTKPREEQFNSTYRVVSVLTVLHQDWLNGKEYKCKVSNKGLPSSIEKTISKAKGQPREPQVYTLPPSQEEMTKNQVSLWCLVKGFYPSDIAVEWESNGQPENNYKTTPPVLDSDGSFFLYSRLTVDKSRWQEGNVFSCSVMHEALHNHYTQKSLSLSLGGGGGSGGGGSGGGGSGGGGSSTKKTQLQLEHLLLDLQMILNGINNYKNPKLTRMLTAKFAMPKKATELKHLQCLEEELKPLEEVLNGAQSKNFHLRPRDLISNINVIVLELKGSETTFMCEYADETATIVEFLNRWITFSQSIISTLT
chain 2: ESKYGPPCPPCPAPEAAGGPSVFLFPPKPKDTLMISRTPEVTCVVVDVSQEDPEVQFNWYVDGVEVHNAKTKPREEQFNSTYRVVSVLTVLHQDWLNGKEYKCKVSNKGLPSSIEKTISKAKGQPREPQVYTLPPSQEEMTKNQVSLSCAVKGFYPSDIAVEWESNGQPENNYKTTPPVLDSDGSFFLVSRLTVDKSRWQEGNVFSCSVMHEALHNRFTQKSLSLSLGK
notes: as for B1
For the molecule B3, the “STAT5 activation of CTLL-2 cells, EC50” value in experiment [1] is 7.7 nM. For the same molecule, the Kd in experiment [2] was 0.063 nM; in experiment [3], over 60000 nM.

B4: Fc-IL-2v heterodimer 99.46 (hIL-2v_Δ1-5_R38G_E61A_C125S) (Fc fusion)
chain 1: ESKYGPPCPPCPAPEAAGGPSVFLFPPKPKDTLMISRTPEVTCVVVDVSQEDPEVQFNWYVDGVEVHNAKTKPREEQFNSTYRVVSVLTVLHQDWLNGKEYKCKVSNKGLPSSIEKTISKAKGQPREPQVYTLPPSQEEMTKNQVSLWCLVKGFYPSDIAVEWESNGQPENNYKTTPPVLDSDGSFFLYSRLTVDKSRWQEGNVFSCSVMHEALHNHYTQKSLSLSLGGGGGSGGGGSGGGGSGGGGSSTKKTQLQLEHLLLDLQMILNGINNYKNPKLTGMLTFKFYMPKKATELKHLQCLEAELKPLEEVLNLAQSKNFHLRPRDLISNINVIVLELKGSETTFMCEYADETATIVEFLNRWITFSQSIISTLT
chain 2: ESKYGPPCPPCPAPEAAGGPSVFLFPPKPKDTLMISRTPEVTCVVVDVSQEDPEVQFNWYVDGVEVHNAKTKPREEQFNSTYRVVSVLTVLHQDWLNGKEYKCKVSNKGLPSSIEKTISKAKGQPREPQVYTLPPSQEEMTKNQVSLSCAVKGFYPSDIAVEWESNGQPENNYKTTPPVLDSDGSFFLVSRLTVDKSRWQEGNVFSCSVMHEALHNRFTQKSLSLSLGK
notes: as for B1
For B4, in experiment [1], the “STAT5 activation of CTLL-2 cells, EC50” value is 0.03 nM. Also, the Kd in experiment [2] was determined as 0.065 nM; in experiment [3] it was 39000 nM.

B5: mouse surrogate Fc-IL-2v heterodimer 170.250 (IL2v_R52G_E76A_C140A) (Fc fusion)
chain 1: GPTIKPCPPCKCPAPNAAGGPSVFIFPPKIKDVLMISLSPIVTCVVVDVSEDDPDVQISWFVNNVEVHTAQTQTHREDYNSTLRVVSALPIQHQDWMSGKEFKCKVNNKDLGAPIERTISKPKGSVRAPQVYVLPPPEEEMTKKQVTLWCMVTDFMPEDIYVEWTNNGKTELNYKNTEPVLDSDGSYFMYSKLRVEKKNWVERNSYSCSVVHEGLHNHHTTKSFSRTPGGGGGSGGGGSGGGGSGGGGSQQQHLEQLLMDLQELLSRMENYRNLKLPGMLTFKFYLPKQATELKDLQCLEDALGPLRHVLDLTQSKSFQLEDAENFISNIRVTVVKLKGSDNTFECQFDDESATVVDFLRRWIAFAQSIISTSPQ
chain 2: GPTIKPCPPCKCPAPNAAGGPSVFIFPPKIKDVLMISLSPIVTCVVVDVSEDDPDVQISWFVNNVEVHTAQTQTHREDYNSTLRVVSALPIQHQDWMSGKEFKCKVNNKDLGAPIERTISKPKGSVRAPQVYVLPPPEEEMTKKQVTLSCAVTDFMPEDIYVEWTNNGKTELNYKNTEPVLDSDGSYFMVSKLRVEKKNWVERNSYSCSVVHEGLHNHHTTKSFSRTPGK
As to B5, the “pSTAT5 EC50, STAT5 activation of CTLL-2 cells” value in experiment [4] stood at 9.6 nM.
